Measurements reported in patent publication US20230054458A1 (JIANGSU HENGRUI MEDICINE, published 2023).

Target: human claudin18.2 (Claudin 18.2, Genbank NP_001002026) (human)
Assay: cell-based or functional assay

ADCC effect IC50, FcrR3A-V158-NFAT-RE-Jurkat reporter luminescence, NUGC4 cells with high claudin18.2 expression [µg/mL] | ADCC effect IC50, FcrR3A-V158-NFAT-RE-Jurkat reporter luminescence, NUGC4 cells with low claudin18.2 expression [µg/mL] | ADCC effect IC50, FcrR3A-V158-NFAT-RE-Jurkat reporter luminescence, NUGC4 cells with moderate claudin18.2 expression [µg/mL] | Binder
0.133 | 0.183 | 0.21 | IMAB-362 (positive control antibody, from WO2016166122) (antibody, human IgG1, kappa, V domains shown) VH: QVQLQQPGAELVRPGASVKLSCKASGYTFTSYWINWVKQRPGQGLEWIGNIYPSDSYTNYNQKFKDKATLTVDKSSSTAYMQLSSPTSEDSAVYYCTRSWRGNSFDYWGQGTTLTVSS VL: DIVMTQSPSSLTVTAGEKVTMSCKSSQSLLNSGNQKNYLTWYQQKPGQPPKLLIYWASTRESGVPDRFTGSGSGTDFTLTISSVQAEDLAVYYCQNDYSYPFTFGSGTKLEIKR
0.0262 | 0.0224 | 0.0154 | humanized antibody h1901-11 (antibody, human IgG1, kappa, V domains shown) VH: EVQLVESGGGLVQPGGSLRLSCAASGFTFSDYGIHWVRQAPGKGLEWIAYISRGSSTIYYADTVKGRFTISRDNAKNSLYLQMTSLRAEDTAVYYCARGGYDTRNAMDYWGQGTTVTVSS VL: DIVMTQSPDSLAVSLGERATISCKSSQSLLNSGNQKNYLAWYQQKPGQPPKLLIYGASTRASGVPDRFSGSGSGTDFTLTISSLQAEDVAIYHCQNDLYYPLTFGQGTKLEIKR
